Biological target: MART-126-35/HLA-A2.1 tetramer (human)
Assay: equilibrium tetramer staining at 0.1-25 nM, flow cytometry, Scatchard plot (KD=1/slope)

Kd: 4 to 6 nM
Substance: MART-1 TCR native PBMC (T cells obtained by leukapheresis from the MART-1 TCR donor patient)
